Measurements taken from patent publication US20260250651, “CAS12 PROTEINS AND USES THEREOF” (GUANGZHOU REFORGENE MEDICINE CO., LTD., published 2026).

T1: Cas12i-99 (N295R,N260R,G705R,D590R)
T1 chain: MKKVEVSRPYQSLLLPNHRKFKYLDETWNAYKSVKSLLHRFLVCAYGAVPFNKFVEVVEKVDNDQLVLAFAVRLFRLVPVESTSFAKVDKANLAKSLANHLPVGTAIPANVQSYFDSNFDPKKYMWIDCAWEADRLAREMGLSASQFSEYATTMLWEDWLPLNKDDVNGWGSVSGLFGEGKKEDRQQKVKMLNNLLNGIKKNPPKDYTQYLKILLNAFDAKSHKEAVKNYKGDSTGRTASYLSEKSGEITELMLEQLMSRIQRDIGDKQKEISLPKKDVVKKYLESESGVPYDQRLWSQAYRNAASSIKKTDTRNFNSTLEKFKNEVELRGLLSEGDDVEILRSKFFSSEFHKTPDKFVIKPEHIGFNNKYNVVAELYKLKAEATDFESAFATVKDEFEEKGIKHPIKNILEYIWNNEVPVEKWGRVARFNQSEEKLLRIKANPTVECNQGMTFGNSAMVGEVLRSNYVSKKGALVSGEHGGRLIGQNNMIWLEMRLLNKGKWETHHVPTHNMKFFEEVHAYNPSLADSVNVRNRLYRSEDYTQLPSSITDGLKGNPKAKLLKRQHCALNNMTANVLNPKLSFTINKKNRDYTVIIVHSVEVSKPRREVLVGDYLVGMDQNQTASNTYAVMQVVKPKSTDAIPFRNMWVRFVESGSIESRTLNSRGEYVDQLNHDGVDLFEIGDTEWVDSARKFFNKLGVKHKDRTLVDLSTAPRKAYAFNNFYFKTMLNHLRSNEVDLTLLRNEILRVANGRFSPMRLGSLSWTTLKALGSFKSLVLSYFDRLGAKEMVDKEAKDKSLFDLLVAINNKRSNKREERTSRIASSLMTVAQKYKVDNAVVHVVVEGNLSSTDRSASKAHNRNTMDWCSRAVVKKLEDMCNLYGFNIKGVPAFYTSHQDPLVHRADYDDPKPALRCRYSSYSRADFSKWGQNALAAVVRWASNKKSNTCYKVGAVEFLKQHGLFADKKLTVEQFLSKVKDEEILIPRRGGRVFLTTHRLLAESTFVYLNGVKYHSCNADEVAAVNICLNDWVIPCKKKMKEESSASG

T2: Cas12i-69 (N295R,N260R,G705R)
T2 chain: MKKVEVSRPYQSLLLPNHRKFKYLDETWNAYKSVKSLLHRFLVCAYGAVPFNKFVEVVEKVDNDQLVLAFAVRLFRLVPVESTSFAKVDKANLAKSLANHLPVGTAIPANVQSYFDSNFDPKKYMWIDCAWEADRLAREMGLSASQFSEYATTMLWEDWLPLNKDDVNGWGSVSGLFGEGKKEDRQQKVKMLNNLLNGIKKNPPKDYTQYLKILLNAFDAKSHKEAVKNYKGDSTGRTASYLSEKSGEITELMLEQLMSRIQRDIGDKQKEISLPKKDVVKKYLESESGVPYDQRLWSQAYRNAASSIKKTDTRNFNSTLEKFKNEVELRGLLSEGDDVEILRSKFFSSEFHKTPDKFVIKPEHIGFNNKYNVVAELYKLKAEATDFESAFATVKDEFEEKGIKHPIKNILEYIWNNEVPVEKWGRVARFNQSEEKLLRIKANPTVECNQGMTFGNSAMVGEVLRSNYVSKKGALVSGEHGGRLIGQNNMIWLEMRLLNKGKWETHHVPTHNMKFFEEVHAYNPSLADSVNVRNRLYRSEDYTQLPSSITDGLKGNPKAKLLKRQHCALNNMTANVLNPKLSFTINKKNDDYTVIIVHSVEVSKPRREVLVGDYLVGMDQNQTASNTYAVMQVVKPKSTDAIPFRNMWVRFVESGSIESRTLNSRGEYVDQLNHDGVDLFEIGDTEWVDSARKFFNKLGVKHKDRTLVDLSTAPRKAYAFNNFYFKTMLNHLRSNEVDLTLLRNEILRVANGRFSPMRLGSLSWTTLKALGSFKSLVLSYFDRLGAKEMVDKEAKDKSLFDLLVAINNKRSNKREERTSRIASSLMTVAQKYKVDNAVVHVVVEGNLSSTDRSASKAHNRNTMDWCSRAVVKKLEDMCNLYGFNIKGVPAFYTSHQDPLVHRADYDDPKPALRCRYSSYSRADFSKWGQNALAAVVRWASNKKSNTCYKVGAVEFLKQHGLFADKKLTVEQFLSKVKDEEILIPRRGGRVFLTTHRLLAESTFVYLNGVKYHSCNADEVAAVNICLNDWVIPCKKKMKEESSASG


What was measured:
[1] = biological target: T1, Cas12i-99; test: cell_activity; 293T indels
Experimental: (§1) Plating: The 293T cell line was plated when the confluence reached 70-80%, and the number of cells seeded in a 24-well plate was 5*10\hat{ }5 cells/well.
(§2) Transfection: After 12-14 hours of plating, transfection was performed. 100 μl of Opti-MEM, 1.5 μl of PEI (Yisheng Bio, Polyethylenimine Linear (PEI) MW25000), 250 ng of the mutant clone plasmid from Example 2, and 250 ng of gRNA plasmid for targeting endogenous genes were added to each well of a 24-well plate. The mixture was incubated at room temperature for 20 minutes and then added to 293T cells for transfection. After transfection overnight, the medium was replaced with fresh medium and cultured for the next period.
(§3) DNA extraction, PCR amplification, and Sanger sequencing: After culturing for 72 hours, cells were washed with PBS, and then 100 μl of cell lysis buffer (Viagen, DirectPCR® Lysis Reagent (Cell)) was added for lysis to obtain a lysate containing genomic DNA. The genomic DNA was amplified in the region near the target sequence, and the PCR product was sent to a sequencing company for Sanger sequencing.

[2] = biological target: T2, Cas12i-69; test: cell_activity; 293T indels; editing >15%
Experimental: as §1, §2, §3

Row | Binder | relative indel editing efficiency [1] | relative indel editing efficiency [2] | indel editing efficiency [2]
1 | gRNA-HBG ; HBG target (ssRNA ; dsDNA) RNA: AGAGAAUGUGUGCAUAGUCACACACAAGGCAAACUUGACCAAU DNA 1: ACAAGGCAAACTTGACCAAT DNA 2: ATTGGTCAAGTTTGCCTTGT | 7 fold of wild type |  | 
2 | gRNA-HBB ; HBB target (ssRNA ; dsDNA) RNA: AGAGAAUGUGUGCAUAGUCACACUAUGCAGAAAUAUUGCUAUUGCCU DNA 1: TATGCAGAAATATTGCTATTGCCT DNA 2: AGGCAATAGCAATATTTCTGCATA | 0.9 fold of Cas12i-69 | 1.58 fold of Cas12i-30 | 
3 | gRNA-TTR ; TTR target (ssRNA ; dsDNA) RNA: AGAGAAUGUGUGCAUAGUCACACCAGUAAGAUUUGGUGUCUAU DNA 1: CAGTAAGATTTGGTGTCTAT DNA 2: ATAGACACCAAATCTTACTG | 1.19 fold of Cas12i-69 |  | 4.68 fold of wild type
